{"source": "paper PMC12489471", "about": "“A multi-dentate, cooperative interaction between endo- and exo-ribonucleases within the bacterial RNA degradosome” (Nucleic Acids Research, 2025)", "molecules": {"B1": {"name": "RNase E 985-1061 (domain or fragment, E. coli, UniProt P21513 985-1061, looked up)", "chain": "VAAEVETVAAVEPEVTVEHNHATAPMTRAPAPEYVPEAPRHSDWQRPTFAFEGKGAAGGHTATHHASAAPARPQPVE", "notes": "source: E. coli Evo21(DE3), pMxe vector, purified (Ni-NTA, amylose, TEV, Q, Superdex 75); not shown: His6, N-terminal, cleaved; MBP, N-terminal, cleaved; intein, C-terminal, cleaved"}, "B2": {"name": "RNase E 985-1061: RNase E peptide that includes both β1 and β2 motifs (peptide)", "chain": "B1 chain", "modifications": "left off: His6, N-terminal, cleaved | MBP, N-terminal, cleaved | intein, C-terminal, cleaved | choline-binding domain, C-terminal, cleaved", "notes": "RNase E peptide that includes both β1 and β2 motifs"}, "B3": {"name": "RNase E 960-1061 (in the SEC-MALLS sample with PNPase) (domain or fragment, E. coli, UniProt P21513 960-1061, looked up)", "chain": "VVETAEVVVAEPEVVAQPAAPVVAEVAAEVETVAAVEPEVTVEHNHATAPMTRAPAPEYVPEAPRHSDWQRPTFAFEGKGAAGGHTATHHASAAPARPQPVE", "notes": "The expected mass of the complex fits one untagged segment of 10,585 Da on a PNPase trimer"}, "B4": {"name": "RNase E 960 – 1061 R1012AR10546A: RNase E peptide with mutation of both Arg1012 and Arg1056 to alanine (peptide)", "chain": "B3 chain with R53A, R97A", "modifications": "left off: His6, N-terminal, cleaved | MBP, N-terminal, cleaved | intein, C-terminal, cleaved | choline-binding domain, C-terminal, cleaved", "notes": "RNase E peptide with mutation of both Arg1012 and Arg1056 to alanine"}, "B5": {"name": "RNase E 985-1053: RNase E peptide lacking the terminal Pro-rich motif (peptide)", "chain": "VAAEVETVAAVEPEVTVEHNHATAPMTRAPAPEYVPEAPRHSDWQRPTFAFEGKGAAGGHTATHHASAA", "modifications": "left off: His6, N-terminal, cleaved | MBP, N-terminal, cleaved | intein, C-terminal, cleaved | choline-binding domain, C-terminal, cleaved", "notes": "RNase E peptide lacking the terminal Pro-rich motif"}, "B6": {"name": "RNase E 960–1039: RNase E peptide carrying the plausible secondary binding motif β2 (peptide)", "chain": "VVETAEVVVAEPEVVAQPAAPVVAEVAAEVETVAAVEPEVTVEHNHATAPMTRAPAPEYVPEAPRHSDWQRPTFAFEGKG", "modifications": "left off: His6, N-terminal, cleaved | MBP, N-terminal, cleaved | intein, C-terminal, cleaved | choline-binding domain, C-terminal, cleaved"}, "B7": {"name": "RNase E 1039-1061 (peptide, UniProt P21513 1039-1061, looked up)", "chain": "GAAGGHTATHHASAAPARPQPVE", "notes": "as for B1"}, "B8": {"name": "RNase E 583-1061, avi-tagged (domain or fragment, E. coli, UniProt P21513 583-1061, looked up)", "chain": "SGGEETKPTEQPAPKAEAKPERQQDRRKPRQNNRRDRNERRDTRSERTEGSDNREENRRNRRQAQQQTAETRESRQQAEVTEKARTADEQQAPRRERSRRRNDDKRQAQQEAKALNVEEQSVQETEQEERVRPVQPRRKQRQLNQKVRYEQSVAEEAVVAPVVEETVAAEPIVQEAPAPRTELVKVPLPVVAQTAPEQQEENNADNRDNGGMPRRSRRSPRHLRVSGQRRRRYRDERYPTQSPMPLTVACASPELASGKVWIRYPIVRPQDVQVEEQREQEEVHVQPMVTEVPVAAAIEPVVSAPVVEEVAGVVEAPVQVAEPQPEVVETTHPEVIAAAVTEQPQVITESDVAVAQEVAEQAEPVVEPQEETADIEEVVETAEVVVAEPEVVAQPAAPVVAEVAAEVETVAAVEPEVTVEHNHATAPMTRAPAPEYVPEAPRHSDWQRPTFAFEGKGAAGGHTATHHASAAPARPQPVE", "notes": "The construct is described nowhere in the methods"}}, "key": {"[1]": {"biological_target": "T1, PNPase carrying a C-terminal Hisx6 tag (E. coli polynucleotide phosphorylase) (E. coli, UniProt P05055 1-711)", "T1 construct": "polynucleotide phosphorylase (PNPase), E. coli; Immobilised through the His tag on an NTA chip for SPR; also called PNPase C-His; PNPase with a 6xHisTag at the CTD; source: E. coli Evo21(DE3), purified (Ni-NTA, butyl-Sepharose HIC, Q, Superdex S200); not shown: His6, C-terminal, kept", "T1 sequence (looked up)": "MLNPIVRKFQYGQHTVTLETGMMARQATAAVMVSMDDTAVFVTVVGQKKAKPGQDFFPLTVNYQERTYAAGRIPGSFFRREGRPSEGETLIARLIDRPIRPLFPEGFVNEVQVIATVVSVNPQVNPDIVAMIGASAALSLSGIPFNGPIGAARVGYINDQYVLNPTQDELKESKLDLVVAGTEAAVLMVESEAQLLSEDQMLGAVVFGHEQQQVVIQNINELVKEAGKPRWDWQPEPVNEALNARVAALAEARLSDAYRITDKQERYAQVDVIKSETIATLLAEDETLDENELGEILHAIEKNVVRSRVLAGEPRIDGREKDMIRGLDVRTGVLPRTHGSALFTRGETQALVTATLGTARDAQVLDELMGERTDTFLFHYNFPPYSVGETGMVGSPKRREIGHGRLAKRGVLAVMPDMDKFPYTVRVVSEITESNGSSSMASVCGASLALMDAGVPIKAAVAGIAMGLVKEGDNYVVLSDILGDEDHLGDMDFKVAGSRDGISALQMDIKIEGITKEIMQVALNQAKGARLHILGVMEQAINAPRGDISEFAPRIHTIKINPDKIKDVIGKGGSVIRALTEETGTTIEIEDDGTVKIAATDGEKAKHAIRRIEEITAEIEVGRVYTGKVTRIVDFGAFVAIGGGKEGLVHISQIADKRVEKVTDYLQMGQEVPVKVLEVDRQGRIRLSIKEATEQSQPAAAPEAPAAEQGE", "assay": "SPR; PNPase with C-terminal His6 tag immobilised on Series S Sensor Chip NTA (5 RU); Biacore T200, 25°C; 20 mM HEPES pH 7.2, 150 mM NaCl, 5 mM MgCl2, 0.5 mM TCEP, 0.05% Tween 20; six peptide concentrations up to 9000 nM (up to 5000 nM for RNase E 985–1061); contact 60 s, dissociation 120 s", "settings": "both partners purified"}, "PNPase": {"biological_target": "T2, PNPase (Escherichia coli, UniProt P05055)", "T2 construct": "made in house; host or cells: E. coli Evo21(DE3)", "T2 sequence (P05055 whole entry, looked up)": "T1 sequence (looked up)", "assay_type": "binding, E. coli", "description": "Briefly, at the N-terminal of the construct, there is an Hisx6 affinity tag that will be used for affinity purification. Following the Hisx6 tag there is an maltose-binding protein (MBP) tag with a TEV cleavage site to maintain solubility of the peptides. Following the MBP tag the gene encoding the peptide is inserted, and is then followed by intein, a self-cleavable tag, followed by a choline-binding domain, which can be used for an extra step of affinity purification. […] After expression, cells were harvested, resuspended in Lysis Buffer 2 (20 mM Tris–HCl, pH 8.0, 80 mM KCl, 300 mM NaCl, 20 mM Imidazole, 0.5 mM TCEP), and lysed with a cell disruptor (Emulsiflex, Avestin). […] After subsequent rounds of washing with Ni Equilibration Buffer supplemented with, respectively, 0.1% Triton-X, 1 M NaCl, and a final wash in Ni Equilibration Buffer, samples were eluted with Ni Elution Buffer (20 mM Tris–HCl, pH 8.0, 300 mM NaCl, 300 mM imidazole, 0.5 mM TCEP). Enriched fractions were then supplemented with 100 mM β-mercaptoethanol to catalyse intein self-cleavage overnight at room temperature. Treated samples were filtered and loaded on an amylose gravity flow column, equilibrated with Amy Equilibration Buffer (20 mM Tris–HCl, pH 8.0, 20 mM NaCl, 20 mM imidazole, 2 mM β-mercaptoethanol) and after washing, His-tagged TEV protease was applied to the resin and incubated at 4°C for 2 h.\nPNPase carrying a C-terminal Hisx6 tag was expressed from pExp-cis-Ec_PNP-CHis vector in E. coli Evo21(DE3) cells, induced with 0.4 mM IPTG, at 18°C overnight. After expression, cells were harvested and resuspended in Lysis Buffer 2 (20 mM Tris–HCl, pH 8.0, 80 mM KCl, 300 mM NaCl, 20 mM imidazole, 0.5 mM TCEP), and lysed with a cell disruptor (Emulsiflex, Avestin). […] After subsequent rounds of washing with equilibration buffer supplemented with 0.1% Triton-X, or 1 M NaCl, the sample was eluted with Ni PNPCHis Elution Buffer (20 mM NaH2PO4, pH 8.0, 300 mM NaCl, 300 mM KCl, 5 mM MgCl2, 300 mM imidazole, pH 7.5, 10 mM β-mercaptoethanol). […] Fractions containing PNPase were run through a HiPrep™ 26/10 Desalting Column (GE Healthcare) and buffer exchanged to Q PNPCHis A (20 mM NaH2PO4, pH 8.0, 30 mM NaCl, 10% glycerol, 0.5 mM TCEP).\nInteraction measurements were made using a Biacore T200 instrument (GE) at 25°C. PNPase with a 6xHisTag at the CTD was immobilized on a Series S Sensor Chip NTA (Cytiva) to provide a signal of 5 response units (RU). […] For the SPR analysis of the point mutants, binding to PNPase was measured at four different concentrations (0, 12.5, 25, and 50 nM). All concentrations were run in duplicates. The contact time was 60 s, while the dissociation time was 120 s, at a […] flow rate. […] The chip surface was regenerated with 350 mM EDTA in water, following manufacturer's instructions. Data were processed using the manufacturer’s BIAevaluation software."}, "E. coli PNPase": {"biological_target": "T3, E. coli PNPase (E. coli, UniProt P05055 1-711)", "T3 construct": "polynucleotide phosphorylase (PNPase), E. coli; also called polynucleotide phosphorylase; full-length PNPase; source: E. coli BL21(DE3), purified (ammonium sulfate, Q, butyl-Sepharose, SEC)", "T3 sequence (looked up)": "T1 sequence (looked up)", "assay": "SEC-MALS; Superdex 200 10/300 Increase, 100 µl at ~1 mg/ml, 25°C; buffer A (50 mM Tris pH 7.5, 100 mM NaCl, 100 mM KCl, 0.01% w/v b-DDM, 1 mM TCEP) or B (A without b-DDM) as Table S2 tells for each sample; the 1:1 ratio is one RNase E segment to one PNPase trimer (expected mass = trimer plus one segment)", "settings": "both partners purified"}, "[2]": {"settings": "SPR, mutant vs wildtype RNase E 960–1061"}}, "note": "Numbering of substitutions follows the chain as printed. Entries after “also recorded” stand apart in the source; their conditions may differ."}
{"molecule": "B1", "values": [{"measurement": "Kd", "setting": "[1]", "result": 0.00402, "unit": "µM"}, {"measurement": "koff", "setting": "[1]", "result": 0.0158, "unit": "s⁻¹"}, {"measurement": "kon", "setting": "[1]", "result": "3.93e+06", "unit": "M⁻¹ s⁻¹"}]}
{"molecule": "B2", "values": [{"measurement": "cause of increase in affinity over 1039–1061, in words", "setting": "PNPase", "result": "both acceleration of on-rate and decrease of off-rate"}, {"measurement": "KD range in words", "setting": "PNPase; pH 7.2", "result": "from the micromolar range to the low nanomolar range"}, {"measurement": "k a", "setting": "PNPase; pH 7.2", "result": 3.93, "unit": "E + 6 1/M s"}, {"measurement": "k d", "setting": "PNPase; pH 7.2", "result": 0.0158, "unit": "s⁻¹"}]}
{"molecule": "B3", "values": [{"measurement": "stoichiometry N", "setting": "E. coli PNPase", "result": 1}]}
{"molecule": "B4", "values": [{"measurement": "Kd (dissociation rate constant, point mutants and wildtype)", "setting": "PNPase; SPR, 25°C, immobilized PNPase C-His, HEPES pH 7.2, 0, 12.5, 25 and 50 nM (point mutants), contact 120 s, dissociation 120 s, duplicates", "result": 0.12, "unit": "s⁻¹"}, {"measurement": "KD range in words (double mutant)", "setting": "PNPase; SPR, 25°C, immobilized PNPase C-His, contact 120 s", "result": "low micromolar range"}, {"measurement": "association rate compared to R1056A, in words", "setting": "PNPase; SPR, double mutant vs slowest-binding single mutant (R1056A)", "result": "ten-fold slower"}, {"measurement": "association rate compared to the wildtype, in words", "setting": "PNPase; [2]", "result": "about two orders of magnitude slower"}, {"measurement": "dissociation rate (off-rate) compared to the wildtype, in words", "setting": "PNPase; [2]", "result": "faster off-rate"}, {"measurement": "effect on KD / binding compared to the wildtype, in words", "setting": "PNPase; SPR, mutant vs wildtype RNase E 960–1061, listed as R1012AR1056A", "result": "significant decrease in binding; also recorded: significantly affected the binding to PNPase"}]}
{"molecule": "B5", "values": [{"measurement": "binding compared with the peptide including the region with Arg1056, in words", "setting": "PNPase", "result": "significantly weaker binding"}, {"measurement": "KD range in words", "setting": "PNPase; pH 7.2", "result": "high micromolar"}, {"measurement": "k a", "setting": "PNPase; pH 7.2", "result": 2.94, "unit": "E + 4 1/M s"}, {"measurement": "k d", "setting": "PNPase; pH 7.2", "result": 0.339, "unit": "s⁻¹"}]}
{"molecule": "B6", "values": [{"measurement": "binding to PNPase (detected or not)", "setting": "PNPase; pH 7.2", "result": "does not interact with PNPase; also recorded: no binding was detected"}]}
{"molecule": "B7", "values": [{"measurement": "Kd", "setting": "[1]", "result": 5.92, "unit": "µM"}, {"measurement": "koff", "setting": "[1]", "result": 0.833, "unit": "s⁻¹"}, {"measurement": "kon", "setting": "[1]", "result": 140000, "unit": "M⁻¹ s⁻¹"}]}
{"molecule": "B8", "values": [{"measurement": "stoichiometry N", "setting": "E. coli PNPase", "result": 1}]}
